# T1: translin (wild-type, native) (Drosophila melanogaster, UniProt Q7JVK6 1-235)
# T1 sequence: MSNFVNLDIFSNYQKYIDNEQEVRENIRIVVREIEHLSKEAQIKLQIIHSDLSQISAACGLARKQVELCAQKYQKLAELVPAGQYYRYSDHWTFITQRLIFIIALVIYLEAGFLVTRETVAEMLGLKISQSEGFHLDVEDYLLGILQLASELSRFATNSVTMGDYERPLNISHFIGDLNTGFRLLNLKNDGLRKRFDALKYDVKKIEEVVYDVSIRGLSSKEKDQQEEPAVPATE
# Assays:
# [1] = biological target: human translin (wild-type) (human, UniProt Q15631 1-228); experiment: EMSA
# [2] = biological target: T1, translin (wild-type, native); experiment: EMSA
# Sequence of human translin (wild-type) (Q15631 whole entry): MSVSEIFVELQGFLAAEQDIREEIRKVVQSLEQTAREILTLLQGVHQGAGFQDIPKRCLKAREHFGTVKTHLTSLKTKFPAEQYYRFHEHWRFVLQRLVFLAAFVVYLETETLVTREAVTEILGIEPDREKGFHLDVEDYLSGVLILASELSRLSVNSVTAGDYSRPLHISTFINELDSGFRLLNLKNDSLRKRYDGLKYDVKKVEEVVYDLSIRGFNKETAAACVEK
binder,measurement,setting,value
GCCCTCCTGCCCTCCTTCCGCGGG (ssDNA) [Bcl-CL1 24-mer ssDNA],binding result,[1],binds
same,binding result,[2],binds

# — paper PMC3642112
